Reference: patent US20100216853
Changes are numbered by the printed parent chain. Names and notes keep the numbering of the source.

B1: semi-synthetic p300 HAT domain E1505R (protein)
chain: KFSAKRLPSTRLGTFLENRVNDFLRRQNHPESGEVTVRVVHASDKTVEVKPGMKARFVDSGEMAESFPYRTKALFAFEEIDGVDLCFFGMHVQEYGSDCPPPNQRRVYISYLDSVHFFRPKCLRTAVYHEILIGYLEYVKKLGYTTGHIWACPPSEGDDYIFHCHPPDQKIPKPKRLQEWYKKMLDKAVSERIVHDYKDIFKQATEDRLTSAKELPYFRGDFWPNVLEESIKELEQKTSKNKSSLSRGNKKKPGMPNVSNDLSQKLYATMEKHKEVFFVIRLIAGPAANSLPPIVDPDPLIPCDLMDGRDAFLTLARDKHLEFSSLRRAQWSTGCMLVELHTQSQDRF
B2: semi-synthetic p300 HAT domain R1410K (protein)
chain: B1 chain with R124K, R219E
B3: semi-synthetic p300 HAT domain R1410A (protein)
chain: B1 chain with R124A, R219E
B4: semi-synthetic p300 HAT domain D1625R/D1628R double mutant (protein)
chain: B1 chain with R219E, D307R, D310R
B5: semi-synthetic p300 HAT domain S1396R/Y1397R double mutant (protein)
chain: B1 chain with S110R, Y111R, R219E
B6: semi-synthetic p300 HAT domain H1434A (protein)
chain: B1 chain with H148A, R219E
B7: semi-synthetic p300 HAT domain T1357R (protein)
chain: B1 chain with T71R, R219E
B8: semi-synthetic p300 HAT domain E1505R/D1625R/D1628R triple mutant (protein)
chain: B1 chain with D307R, D310R
B9: semi-synthetic p300 HAT domain Y1394F (protein)
chain: B1 chain with Y108F, R219E
B10: semi-synthetic p300 HAT domain T1357L (protein)
chain: B1 chain with T71L, R219E
B11: semi-synthetic p300 HAT domain D1628R (protein)
chain: B1 chain with R219E, D310R
B12: semi-synthetic p300 HAT domain Y1467F (protein)
chain: B1 chain with Y181F, R219E
B13: semi-synthetic p300 HAT domain D1625R (protein)
chain: B1 chain with R219E, D307R
B14: semi-synthetic p300 HAT domain W1436A (protein)
chain: B1 chain with W150A, R219E
B15: semi-synthetic p300 HAT domain, wild-type (protein)
chain: B1 chain with R219E

Assays:
[1] = biological target: T1, H4-15 histone H4 tail peptide
T1 chain: GRGKGGKGLGKGGAK

H4-15(K5D/K12D) peptide = biological target: T2, H4-15(K5D/K12D) peptide
T2 chain: GRGDGGKGLGDGGAK

H4-12(K5A/K12A) peptide = biological target: T3, H4-12(K5A/K12A) peptide
T3 chain: RGAGGKGLGAGA

H4-12(K5X/K12A) peptide = biological target: T4, H4-12(K5X/K12A) peptide
T4 chain: RGXGGKGLGAGA

| Protein | Km(µM) for H4-15 [1] | V/K [1] | further results |
| --- | --- | --- | --- |
| B1 | >1000 | 2000 M⁻¹ s⁻¹ | V/K decrease against wild-type [1]: V/K was decreased by 12-fold |
| B2 | 156 µM |  |  |
| B3 | 190 µM |  |  |
| B4 | >1000 | 1160 M⁻¹ s⁻¹ | V/K difference against wild-type [1]: the 22-fold V/K difference between wild-type p300 HAT protein and the D1625R/D1628R mutant for H4-15 substrate; V/K drop against wild-type [1]: a 20-fold drop in V/K; V/K(M^-1s^-1) for D1625R/D1628R [1]: 1160 M⁻¹ s⁻¹; V/K(M^-1s^-1) for D1625R/D1628R (H4-15(K5D/K12D) peptide): 422 M⁻¹ s⁻¹; acetyltransferase activity against wild-type (H4-15(K5D/K12D) peptide): almost equal (within 2-fold) acetyltransferase activity; V/K(M^-1s^-1) for D1625R/D1628R (H4-12(K5A/K12A) peptide): 515 M⁻¹ s⁻¹; loss in V/K against wild-type (H4-12(K5A/K12A) peptide): the loss of 6-fold in V/K for neutral H4 substrates; V/K(M^-1s^-1) for D1625R/D1628R (H4-12(K5X/K12A) peptide): 738 M⁻¹ s⁻¹; loss in V/K against wild-type (H4-12(K5X/K12A) peptide): the loss of 6-fold in V/K for neutral H4 substrates |
| B5 |  |  | decrease of p300 HAT activity against wild-type [1]: severely decreased p300 HAT activity (>50-fold) |
| B6 | 151 µM |  |  |
| B7 | 294 µM | 13200 M⁻¹ s⁻¹ |  |
| B8 | >1000 | 232 M⁻¹ s⁻¹ |  |
| B9 | 136 µM |  |  |
| B10 | 111 µM | 18700 M⁻¹ s⁻¹ |  |
| B11 | >1000 | 2100 M⁻¹ s⁻¹ | V/K decrease against wild-type [1]: V/K was decreased by 12-fold |
| B12 | 520 µM |  |  |
| B13 | 640 µM | 5670 M⁻¹ s⁻¹ | V/K decrease against wild-type [1]: a V/K decrease of about 5-fold |
| B14 | 394 µM |  |  |
| B15 | 164 µM | 25000 ± 1640 M⁻¹ s⁻¹ | V/K(M^-1s^-1) for W.T. [1]: 25000 M⁻¹ s⁻¹; Km (H4-15(K5D/K12D) peptide): Km of these substrates were generally too high to be measured (>1000 µM); V/K(M^-1s^-1) for W.T. (H4-15(K5D/K12D) peptide): 636 M⁻¹ s⁻¹; Km (H4-12(K5A/K12A) peptide): Km of these substrates were generally too high to be measured (>1000 µM); V/K(M^-1s^-1) for W.T. (H4-12(K5A/K12A) peptide): 3820 M⁻¹ s⁻¹; Km (H4-12(K5X/K12A) peptide): Km of these substrates were generally too high to be measured (>1000 µM); V/K(M^-1s^-1) for W.T. (H4-12(K5X/K12A) peptide): 5250 M⁻¹ s⁻¹ |
